From article PMC3257569 (The Journal of Cell Biology, 2011)

Legend:
[1] = target: the molecule itself; assay: negative staining and EM
[2] = target: the molecule itself; assay: velocity sedimentation in a sucrose gradient

| Protein | binding result [1] | binding result [2] |
| --- | --- | --- |
| lsp1ΔN (domain or fragment, S. cerevisiae, UniProt Q12230 36-341, looked up) ASIASSFRKNAAGNFGPELARKLSQLVKTEKGVLRAMEVVASERREAAKQLSLWGADNDDDVSDVTDKLGVLIYELGELQDQFIDKYDQYRVTLKSIRNIEASVQPSRDRKEKITDEIAHLKYKDPQSTKIPVLEQELVRAEAESLVAEAQLSNITREKLKAAYSYMFDSLRELSEKFALIAGYGKALLELLDDSPVTPGEARPAYDGYEASRQIIMDAESALESWTLDMAAVKPTLSFHQTVDDVYEDEDGEEEEEPEIQNGDIPGQVVEEEEVEWTTEVPVDDEAHEADHHVSQNGHTSGSENI | binds |  |
| recombinant Pil1 (natural protein, S. cerevisiae, UniProt P53252 1-339, looked up) MHRTYSLRNSRAPTASQLQNPPPPPSTTKGRFFGKGGLAYSFRRSAAGAFGPELSRKLSQLVKIEKNVLRSMELTANERRDAAKQLSIWGLENDDDVSDITDKLGVLIYEVSELDDQFIDRYDQYRLTLKSIRDIEGSVQPSRDRKDKITDKIAYLKYKDPQSPKIEVLEQELVRAEAESLVAEAQLSNITRSKLRAAFNYQFDSIIEHSEKIALIAGYGKALLELLDDSPVTPGETRPAYDGYEASKQIIIDAESALNEWTLDSAQVKPTLSFKQDYEDFEPEEGEEEEEEDGQGRWSEDEQEDGQIEEPEQEEEGAVEEHEQVGHQQSESLPQQTTA |  | binds |
| recombinant pil1(4D) (natural protein, S. cerevisiae, UniProt P53252 1-339, looked up) MHRTYSLRNSRAPTASQLQNPPPPPSTTKGRFFGKGGLAYSFRRDAAGAFGPELSRKLDQLVKIEKNVLRSMELTANERRDAAKQLSIWGLENDDDVSDITDKLGVLIYEVSELDDQFIDRYDQYRLTLKSIRDIEGSVQPSRDRKDKITDKIAYLKYKDPQSPKIEVLEQELVRAEAESLVAEAQLSNITRSKLRAAFNYQFDSIIEHSEKIALIAGYGKALLELLDDDPVDPGETRPAYDGYEASKQIIIDAESALNEWTLDSAQVKPTLSFKQDYEDFEPEEGEEEEEEDGQGRWSEDEQEDGQIEEPEQEEEGAVEEHEQVGHQQSESLPQQTTA | binds |  |
| recombinant Lsp1 (natural protein, S. cerevisiae, UniProt Q12230 1-341, looked up) MHRTYSLRNQRAPTAAELQAPPPPPSSTKSKFFGKASIASSFRKNAAGNFGPELARKLSQLVKTEKGVLRAMEVVASERREAAKQLSLWGADNDDDVSDVTDKLGVLIYELGELQDQFIDKYDQYRVTLKSIRNIEASVQPSRDRKEKITDEIAHLKYKDPQSTKIPVLEQELVRAEAESLVAEAQLSNITREKLKAAYSYMFDSLRELSEKFALIAGYGKALLELLDDSPVTPGEARPAYDGYEASRQIIMDAESALESWTLDMAAVKPTLSFHQTVDDVYEDEDGEEEEEPEIQNGDIPGQVVEEEEVEWTTEVPVDDEAHEADHHVSQNGHTSGSENI |  | binds |
| pil1ΔN (domain or fragment, S. cerevisiae, UniProt P53252 36-339, looked up) GGLAYSFRRSAAGAFGPELSRKLSQLVKIEKNVLRSMELTANERRDAAKQLSIWGLENDDDVSDITDKLGVLIYEVSELDDQFIDRYDQYRLTLKSIRDIEGSVQPSRDRKDKITDKIAYLKYKDPQSPKIEVLEQELVRAEAESLVAEAQLSNITRSKLRAAFNYQFDSIIEHSEKIALIAGYGKALLELLDDSPVTPGETRPAYDGYEASKQIIIDAESALNEWTLDSAQVKPTLSFKQDYEDFEPEEGEEEEEEDGQGRWSEDEQEDGQIEEPEQEEEGAVEEHEQVGHQQSESLPQQTTA | binds |  |
